For assay [1], the target named is CD38 on cells (Raji, Daudi, REH, CD38-transfected HEK293) (human) (UniProt P28907). Nature of the assay: flow cytometry, Raji cells expressing CD19 and CD38. A general note: In flow cytometry, cells or beads pass a laser one at a time.
For assay [2] the target is unchanged. Described as above. The source holds these as a separate data set.
Assay [3] has the same target. The assay is described as follows: flow cytometry, Raji cells; top asymptote fixed at about the maximum response of Darzalex.

Like-named read-outs stand apart in the source and are kept apart here.

The EC50 is the midpoint of the concentration-response curve. The low end stands for a more potent agent, the high end for a less potent agent. With Darzalex ® (CD38 control) (antibody), in assay [1], the EC50 is 0.195 µg/mL and the Max MFI was 4.02e+06 MFI. In assay [2], this substance returned a half-maximal effective concentration (EC50) of 1.27 nM. Also, the Adjusted EC50 in assay [3] turned out to be 1.27 nM.

Source of the values: patent US20220185908A1.
